Results published in US20050019758A1 (GlaxoSmithKline, published 2005).
Numbering of substitutions follows the chain as printed. Several values for one entry are separate records, joined by “and”; a condition that tells them apart may be missing. Identical values can stand only once. Like-named read-outs stand apart in the source and are kept apart here.

Columns and labels:
[1] = target: T1, F protein of RS Long strain virus (native form, on virus and infected VERO cells) (Respiratory Syncytial Virus, UniProt P12568 26-574); experiment: cell-based or functional assay
T1 sequence (P12568 26-574): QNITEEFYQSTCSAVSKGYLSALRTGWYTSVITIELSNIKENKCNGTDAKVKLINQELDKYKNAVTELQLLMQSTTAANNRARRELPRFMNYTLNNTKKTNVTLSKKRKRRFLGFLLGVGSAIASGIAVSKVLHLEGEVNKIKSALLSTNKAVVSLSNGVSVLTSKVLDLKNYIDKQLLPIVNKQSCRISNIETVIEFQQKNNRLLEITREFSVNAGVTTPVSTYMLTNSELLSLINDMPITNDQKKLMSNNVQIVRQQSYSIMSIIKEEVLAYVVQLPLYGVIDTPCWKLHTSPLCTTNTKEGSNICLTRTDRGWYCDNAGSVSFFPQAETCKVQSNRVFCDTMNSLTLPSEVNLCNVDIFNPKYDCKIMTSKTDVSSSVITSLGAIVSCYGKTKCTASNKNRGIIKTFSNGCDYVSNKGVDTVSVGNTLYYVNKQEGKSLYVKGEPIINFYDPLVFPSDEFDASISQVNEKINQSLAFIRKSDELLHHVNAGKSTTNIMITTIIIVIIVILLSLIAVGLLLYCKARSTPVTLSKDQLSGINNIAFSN

[2] = target: T1, F protein of RS Long strain virus …; experiment: cell-based or functional assay; remark: listed apart in the source
[3] = target: T1, F protein of RS Long strain virus …; experiment: ELISA on methanol-fixed VERO cells infected with RS Long virus, biotinylated mAb 19B, HRP-streptavidin
[4] = target: T1, F protein of RS Long strain virus …; experiment: cell-based or functional assay; remark: listed apart in the source

B1: mAb 19B (antibody, human IgG1)
VH: QVQLVVESGGGLRPGGSLRLSCAASGTTLSGYTMHWVRQAPGKGLEWVSSITGGSNFINYSDSVKGRFTISRDNAKNSLYLQMNSLTAEDTAVYYCATAPIAPPYFDHWGQGTLVTVSS
light: DIQMTQSPSSLSASVGDRVTITCRATQSVSNFLNWYQQKPGEAPTLLIYDASTSQSGVPSRFSGSGSGMDFSLTISSLQPEDLAMYYCQASINTPLFGGGTRIDMRR
modifications: N-linked carbohydrate at Asn59 in part of the molecules (glycovariant)
notes: Human IgG1, kappa; also called Hu19B; version B
Q: With B1 as the binder, how does the “Fusion-Inhibition Titer EC50” value [1] read?
A: 2.3 mg/L

Q: What about the “Fusion-Inhibition Titer EC50” value [2] of the same binder?
A: 2.5 mg/L

Q: What about the EC50 [3] of the same binder?
A: 0.034 mg/L

Q: And the “Fusion-Inhibition EC50” value [4]?
A: 2.3 ug/ml and 15.3 nM

Q: What about the “Neutralization EC50” value [4] of the same binder?
A: 1.5 mg/L

B2: mAb 19B Fraction A (<5% glycovariant) (antibody, human IgG1)
VH: B1 VH
light: DIQMNFLNWYQQKPGEAPTLLIYDASTSQSGVPSRFSGSGSGMDFSLTISSLQPEDLAMYYCQASINTPLFGGGTRIDMRR
modifications: N-linked carbohydrate at Asn59 in <5% of the preparation
Q: Which “Fusion-Inhibition Titer EC50” value [2] does the source give for B2 here?
A: 1.8 mg/L

B3: Fab19B Fraction C (99% glycovariant) (Fab)
VH: B1 VH
light: B2 light
modifications: N-linked carbohydrate at Asn59 in 99% of the preparation
Q: How did the “Fusion-Inhibition Titer EC50” value [2] turn out when B3 was run?
A: 3.7 mg/L

B4: mAb 19C (antibody, human IgG1)
VH: B1 VH with S61A
light: not shown
Q: Which “Fusion-Inhibition EC50” value [4] does the source give for B4 here?
A: 2.4 ug/ml and 16 nM

B5: Fab19B Fraction B (94% glycovariant) (Fab)
VH: B1 VH
light: B2 light
modifications: N-linked carbohydrate at Asn59 in 94% of the preparation
Q: How did the “Fusion-Inhibition Titer EC50” value [2] turn out when B5 was run?
A: 1.5 mg/L

B6: Fab19B Fraction A (1% glycovariant) (Fab)
VH: B1 VH
light: B2 light
modifications: N-linked carbohydrate at Asn59 in 1% of the preparation
Q: For B6, which “Fusion-Inhibition Titer EC50” value [2] is on record?
A: 0.89 mg/L

B7: mAb 19B Fraction B (40% glycovariant) (antibody, human IgG1)
VH: B1 VH
light: B2 light
modifications: N-linked carbohydrate at Asn59 in 40% of the preparation
Q: For B7, which “Fusion-Inhibition Titer EC50” value [2] is on record?
A: 3.8 mg/L

B8: Fab19B (Fab)
VH: B1 VH
light: B2 light
modifications: N-linked carbohydrate at Asn59 in <10% of the preparation (Table 4)
Q: How did the “Fusion-Inhibition Titer EC50” value [2] turn out when B8 was run?
A: 0.12 mg/L

Q: And the “Fusion-Inhibition EC50” value [4]?
A: 0.12 ug/ml and 2.4 nM

B9: mAb 19D (antibody, human IgG1)
VH: B1 VH with N59Q
light: not shown
Q: For B9, which “Fusion-Inhibition EC50” value [4] is on record?
A: 2.6 ug/ml and 17.3 nM

B10: Fab19 (Fab)
VH: EVQLLEVESGGGLRPGGSLRLSCAASGTTLSGYTMHWVRQAPGKGLEWVSSITGGSNFINYSDSVKGRFTISRDNAKNSLYLQMNSLTAEDTAVYYCATAPIAPPYFDHWGQGTLVTVSS
light: ELTQSPSSLSASVGDRVTITCRATQSVSNFLNWYQQKPGEAPTLLIYDASTSQSGVPSRFSGSGSGMDFSLTISSLQPEDLAMYYCQASINTPLFGGGTRIDMRR
Q: B10 was tested. Which “Fusion-Inhibition EC50” value [4] did it give?
A: 0.22 ug/ml and 4.4 nM

Q: And the “Neutralization EC50” value [4]?
A: 0.34 mg/L

B11: Fab19A (Fab)
VH: B10 VH
light: B10 light
Q: B11 was tested. Which “Fusion-Inhibition EC50” value [4] did it give?
A: 0.16 ug/ml and 3 nM

B12: mAb 19A (antibody, human IgG1)
VH: B10 VH
light: B10 light
Q: What does the source list for B12?
A: Fusion-Inhibition EC50 [4]: 18.9 nM and 2.8 ug/ml; Neutralization EC50 [4]: 2.2 mg/L
